According to patent US20140286983A1:

What was measured:
[1] = biological target: DENV-1 VLP mutant E311K (Dengue virus serotype 1 strain (56)BC94/95; C-terminal 20% Japanese encephalitis virus)
[2] = biological target: DENV-1 VLP mutant G106RL107DK310DE311KP364Q (pVD1-CRR VLP antigen) (Dengue virus serotype 1 strain (56)BC94/95; C-terminal 20% Japanese encephalitis virus)
[3] = biological target: DENV-1 VLP mutant K310D (Dengue virus serotype 1 strain (56)BC94/95; C-terminal 20% Japanese encephalitis virus)
[4] = biological target: DENV-1 VLP mutant K310DE311KP364Q (Dengue virus serotype 1 strain (56)BC94/95; C-terminal 20% Japanese encephalitis virus)
[5] = biological target: DENV-1 VLP mutant G106RL107D (Dengue virus serotype 1 strain (56)BC94/95; C-terminal 20% Japanese encephalitis virus)
[6] = biological target: DENV-1 VLP mutant L107D (Dengue virus serotype 1 strain (56)BC94/95; C-terminal 20% Japanese encephalitis virus)
[7] = biological target: DENV-1 VLP mutant P364Q (Dengue virus serotype 1 strain (56)BC94/95; C-terminal 20% Japanese encephalitis virus)
[8] = biological target: DENV-1 VLP mutant G106R (Dengue virus serotype 1 strain (56)BC94/95; C-terminal 20% Japanese encephalitis virus)
[9] = biological target: DENV-1 virus (strain 56BC94/95) (Dengue virus serotype 1 strain 56BC94/95); experiment: cell-based or functional assay
[10] = biological target: DENV-2 virus (strain 16681) (Dengue virus serotype 2 strain 16681) (UniProt P29990); experiment: cell-based or functional assay
[11] = biological target: DENV-4 virus (strain 130) (Dengue virus serotype 4 strain 130); experiment: cell-based or functional assay
[12] = biological target: DENV-3 virus (strain 116RC1396) (Dengue virus serotype 3 strain 116RC1396); experiment: cell-based or functional assay

Row | Substance | percent of remaining reactivity compared to WT [1] | percent of remaining reactivity compared to WT [2] | percent of remaining reactivity compared to WT [3] | percent of remaining reactivity compared to WT [4] | percent of remaining reactivity compared to WT [5] | percent of remaining reactivity compared to WT [6] | percent of remaining reactivity compared to WT [7] | percent of remaining reactivity compared to WT [8] | Nt50 (µg/mL), FRµNT [9] | Nt50 (µg/mL), FRµNT [10] | Nt50 (µg/mL), FRµNT [11] | Nt50 (µg/mL), FRµNT [12]
1 | MAb 1A1D-2 (antibody) | 50% | < 0.1% | 1.5% | < 0.8% | 100% | 100% | 100% | 25% | 1.68 µg/mL | 0.46 µg/mL | > 20 µg/mL | 1.26 µg/mL
2 | MAb 6B6C-1 (antibody) | 100% | 3% | 100% | 50% | 0.8% | 50% | 100% | 12.5% | – | – | – | –
3 | MAb 4G2 (antibody) | 100% | < 0.1% | < 0.1% | 100% | < 0.1% | < 0.1% | < 0.1% | < 0.1% | – | – | – | –
4 | MAb 3H5 (antibody) | – | – | – | – | – | – | – | – | > 20 µg/mL | 0.15 µg/mL | – | –
